Assay results as given in patent publication US20030138840A1.

Key:
[1] = target: Recombinant human CPP32 protein with a C-terminal 6His tag, (p17p12)2 tetramer (human) (UniProt P42574); assay: cell-based or functional assay
[2] = target: CPP32 P12 subunit + Leu + Glu + 6 His (human) (UniProt P42574); assay: analysis of the purified protein (SDS-PAGE, RP-HPLC, MALDI-TOF MS, N-terminal sequence and amino acid analysis)

enzyme inhibited (CPP32 protease activity) [1] | molar ratio [2] | Molecule
99.9% | – | Ac-Asp-Val-Ala-Asp-fluoromethylketone (peptide)
– | 1 mol/mol | CPP32 P17 subunit (enzyme, human, UniProt P42574 29-175, looked up) SGISLDNSYKMDYPEMGLCIIINNKNFHKSTGMTSRSGTDVDAANLRETFRNLKYEVRNKNDLTREEIVELMRDVSKEDHSKRSSFVCVLLSHGEEGIIFGTNGPVDLKKITNFFRGDRCRSLTGKPKLFIIQACRGTELDCGIETD
